Source: the DeepSol protein solubility set

test: soluble on expression in E. coli; label from the status in PepcDB or PDB records

Row | Sequence | soluble on expression in E. coli
1 | MNLTQMLPDLDDVPESLLDEAIFDSFLSWTRSKDLALYPAQEEAALGILAGDNVILATPTGSGKSMVAIAAHFIAMARGQRSFYTAPIKALVNEKFFALCDIFGPESVGMMTGDATVNGSAPIICATAEIVANIALRDGTDADIDQVVMDEFHYYSEPGRGWAWQVPLLELPRTQFLLMSATLGDTTFIQKDLSDRTGRTTNLVAGATRPVPLQFSYVYTPVHETIQDLLDTNNAPIYVVHFTQREAIERAQSLTSMTVIDSETKEKIATEIGNFKFTTTFGHTLSKLLRKGIGVHHAGMLPKYRRLVEKLSQTGLLKIICGTDTLGVGINVPIRTVLFTGLAKFDGSKQRILASREFHQIAGRAGRAGYDTVGNVVIEAPEHEIENWRLRQRAGSDLKKLKKLRKKSARDGEVTWGEKTYERLSEAEPENLQSQFRISNSMLLNVIARSGDAYVHLKHLLRTNHDTRDKQNKDILTALELFRGLVAAGIVEKLDSPDSTGRKYVITEDLRRDFALNQPLAPFALAALEILDKESTSYALDVISVFESILEDPRVVLIAQQKQARGEEIAALKAEGVEYTERMNIVEEISWPKPLEEILEPAFDTYCSGHPWAKEFTLSPKSIVRDMIEHGMTFSDFIATYGLSRSEGVVLHYLTDAWKTLSHSVPTEYVSDELEEIIEWLGELVRQVDSSLIDEWANMADPDAPISQDTVDQQRAFGVEDPNAITANSRAFAVMVRNLMFRMVQLFAAEEEEKLEALTDYLDEQPDFSEALDVYFDEYSDLDVGPDARGREYFLLKKDGRIWSVRQIIKDPNDDRAFSFAATVDLNASDAADEVRFAKFSIDS | not soluble
2 | MNLVELGSKTAKDGFKNEKDIADRFENWKENSEAQDWLVTMGHNLDEIKSVKAVVLSGYKSDINVQVLVFYKDALDIHNIQVKLVSNKRGFNQIDKHWLAHYQEMWKFDDNLLRILRHFTGELPPYHSNTKDKRRMFMTEFSQEEQNIVLNWLEKNRVLVLTDILRGRGDFAAEWVLVAQKVSNNARWILRNINEVLQHYGSGDISLSPRGSINFGRVTIQRKGGDNGRETANMLQFKIDPTELFDI | soluble
3 | MNLVSLRDSPQYLERAIAYFQSKWGNENTKMVYDNCFRHSLNAENPIPQWYLLMNGDEIIGCAGLTSNDFNSRADLYPWLVALFIEEKYRGNHYANLLIEQAKKDTLKFGFSKLYLSTSHTSYYERLGFTYIGDCWHPWGESSRVYEIILKF | not soluble
4 | MNMLEKVQSQLEHLSKSERKVADVILAAPGRSIHLSIAMLAQEANVSEPTVNRFCRSMNTRGFPDFKLHLAQSLANGTPYVNRNVDEDDSVEAYTGKIFESAMASLDHVRQSLDKSAVNRAVDLLTQAKKIAFFGLGSSAAVAHDAMNKFFRFNVPVIYSDDIVLQRMSCMNCSDDDVVVLISHTGRTKSLVELAQLARENDAMVIALTSAGTPLAREATLAITLDVPEDTDIYMPMVSRLAQLTVIDVLATGFTLRRGAKFRDNLKRVKEALKESRFDKELLIKSDDR | not soluble
5 | MNMSQNLDFIHSAQRTIGLERDAVDSLLARIGDDFVKACELLLAGKGRVVVVGMGKSGHVGKKIAATLASTGTPSFFVHPAEASHGDMGMITKDDVVLALSNSGSTAEIVTLLPLIKRLGITLISMTGNPESPLAKAAEVNLDASVGQEACPLNLAPTSSTTVTLVLGDALAIALLEARGFTAEDFAFSHPGGALGRRLLLKVEDVMHVGEGLPQVLLGTSLTGALMEMTRKGLGMTVVLDEHGKLAGIFTDGDLRRALDRGIDVRQVTIDQVMTVHGKTVRAEILAAEALKIMEDNKIGALVVVDADDRPVGALNMHDLLRAGVM | not soluble
6 | MNNDNKRSAGGLGLVGDIGGTNARFALWRGQRLESIEVLACADYPRPELAVRDYLARIGESVANIDSVCLACAGPVGAADFRFTNNHWVINRAAFREELGLDHLLLVNDFSTMAWAASRLGADELVQVRAGSAQADRARLIIGPGTGLGVGSLLPLGGGRWEVLPCEGGHVDLPVTSPRDFALWQGLQARYGHVSAERALSGNGLLALYEISCALDGVAVRASSAAEVGALAMAGDAQADAVLEHFFLWLARVAGNAVLTVGALGGVYITGGIVPRFLERFIASGFAEAFASRGKTSGAYLQDVPVWVMTAEHPGLLGAGVALQQALDAEG | not soluble
7 | MNNLYPYGAPDSNLYARKQEEYDQQIAEAILAGIKREATAIELYRRLADEAPSEQHQHDIRQALENKQASLTQFTNAYRILTGQQPQLEVDDVSFYRFHEGLQKAYEIEVEGYEEYERSSALTENPHVQHAFWTALNTEYENTTRLYRSLHEEADHRVTDHGPRPFVVNIEDETKRNRAFRRALWTGDHLQVTLMSIQVGEDIGLEIHPHLDQFLRVEEGRGLVQMGHRQDNLHFQEEVFDDYAILIPAGTWHNVRNTGNRPLKLYSIYAPPQHPHGTVHETKAIAMAAEEHHHL | soluble
8 | MNNNELYVSLDLGTSNTKVIVGEMTGDSLNIIGVGNVPSEGLKKGSIVDIDETVHSIRKAFDQAERMVGFPLRKAIVGVNGNYINIQDTNGVVAVSSENKEIQVEDVRRVMAAAQVVSVPHEQLIVDVIPKQFIVDGRDEITDPKKMLGVRLEVEGTLITGSKTILHNLLRCVERAGIEITDICLQPLAAGSAALSKDEKNLGVALIDIGGGSTTIAVFQNGHLTSTRVIPLGGENITKDISIGLRTSTEEAERVKKQLGHAYYDEASEDEIFEVTVIGTNQKQTFTQQEAANIIEARVEEILEIVSEELRSMGITDLPGGFVLTGGQAAMPGVMSLAQDVLQNNVRVQGPNYIGVRDPQYMTGVGLIQFACRNARIQGRKIGFKMPEEAIQEIAVSSSEEQEQHHHQNEVQQRPKGKQKTQAEHNKQSKMKKLLSMFWE | not soluble
9 | MNNSEGLKSFQQSLADLPQWVSERLLQQINQLTNYEPVIGIMGKTGVGKSSLCNALFAGDISPVSDVAACTREPLRFRLQVGDRYITLMDLPGVGESGARDTEYAALYREQLPRLDLVLWLIKADDRALTVDEHFYHQVIGEVYRHKVLFVISQSDKAEPTSGGGQLSTAQKQNISRKICLLHELFQPVHPVCAVSVRLQWGLKVMAERMIKCLPREATSPVVSQLHPSFRTTVVREQARSDFGETVGAVLDSISAFPLIPAPVRAVIQAVRTTVVSVARAVWDFFF | soluble
10 | MNNSLSDKYNSSSTTLCSSVHAESCPTDTEDAIIRNIKLPGFRGNISRALSQKSNSPSGCRTPTPKTAPPSYEQFQVLRRNSMKSSVQPQRNGILSPAPPVPTSSRANTITVNGAHVQQAMNRIDMSTDSANTILRSPYSTRSDSITSVDSGQCSGDQIERRSNCSTRQESKDDDDTGMPSYARMASTMDHVLRTSSALYTLLSSALDPATCRDLLAKSSVFIQLLESSPCTNYLPKTEMARLKMNVQELQKNRDKGIIDMNNMTNFFAILLRKSIESVLLVFVRIISKNLCESNGKDRLTPICLEHLIHICLFGDELCIEAIQKGCISSVIRIMKNDQPQENTLRFLLRTLAVLCGVSKGALALLTQGGLDLVIDRLLSISSSICSVEAAGILTQLTNPQSAFIRLNHVEPIISRLLDLIDQCKSGDSLLLATAALNNVTLQNPNGVDIMYRNNSIRRLISAYNRENCATVFVQEQIVTAFSRLAARHLDHQMVDQNAIPVLLEFLSLTHPIHADYCRRIRYKAAVCIGTLANSEIGLKALYGNNAYAILSNVLYDDNNSSNPFNMICNNIRTKLESKYQSESAV | not soluble
11 | MNNTVKTDGDSVSGRDLPITKISEDRFERSAYSAQLANIICDVAPWGASTVFSLTGQWGSGKTSLVNLIRSEESLSNEKWTIVDFNPWVASDPQSLIEEFYRVIVGTVPDDKTGQKIKTVLQKTFSTIGSIAGGVGGFGVLEALALSKGVDAANAVYKTWKQEQDSWPTLYTRAANHFKDLNKRILIVVDDIDRLHTDELALLMKVIRLLGRFPQVNYLLVYEEESLLTTLARSTAVGGSEDDALRFMEKIVQYPFDVPPLTSFQIEKELSALFDKLFQGVSLSGDPEDFALVKSRMFDVWEKTLVTPRLLHRFAALLTNWTRIYGSGEVNGVDLTILATIRIVFPSVYKRLSRAKEVLLQGGRTTGLEHHHHHH | soluble
12 | MNQLCRAVPSLRSAVRLASSGRLYTKKHEWVLVENGVGTVGITDFATEQLGDVVFIELPDEGTEISKGDSTGAVESVKAASDIYAPISGTVTQKNVKLEEEAGLINKSPFEKGWLYKLKVKSADELEKLLNEEQYAKFKKDEEAAH | not soluble
13 | MNQNDNRIFRKEDLDWKELETIGIHKEELEKSGDMELLLQGEETETVPLKIRTSALRLTMDATLRITVGTDGKPVMEINGISPEAESEAGG | not soluble
14 | MNQTDTSPIRLRRSWNTSEIEALFDEHAGRIDPRIYTDEDLYQLELERVFARSWLLLGHETQIRKPGDYITTYMGEDPVVVVRQKDASIAVFLNQCRHRGMRICRADAGNAKAFTCSYHGWAYDTAGNLVNVPYEAESFACLNKKEWSPLKARVETYKGLIFANWDENAVDLDTYLGEAKFYMDHMLDRTEAGTEAIPGVQKWVIPCNWKFAAEQFCSDMYHAGTTSHLSGILAGLPEDLEMADLAPPTVGKQYRASWGGHGSGFYVGDPNLMLAIMGPKVTSYWTEGPASEKAAERLGSVERGSKLMVEHMTVFPTCSFLPGINTVRTWHPRGPNEVEVWAFTVVDADAPDDIKEEFRRQTLRTFSAGGVFEQDDGENWVEIQHILRGHKARSRPFNAEMSMDQTVDNDPVYPGRISNNVYSEEAARGLYAHWLRMMTSPDWDALKATR | soluble
15 | MNRFILSAFLLVAIFAISDAAVAQQQVKDGEKVEIDAFKGAKAIKRTVAGGDQIFHLDGDNKGSFVDAKGKKIESTNYEANNGILIIKKFTKADVGTYSEHPAKNTETKHADGSISAVPGLTLDISLQ | soluble
16 | MNRILLYVHFNKYNKISAHVYYQLEQMRSLFSKIVFISNSKVSHEDLKRLKNHCLIDEFLQRKNKGFDFSAWHDGLITMGFDKLEEFDSLTIMNDTCFGPIWEMAPYFENFEEKKAVDFWGITNNRGTKAFKEHVQSYFMTFKNQVIQNKVFQQFWQSIIEYENVQEVIQHYETQLTSILLNEGFSYQTVFDTRKAESSFMPHPDFSYYNPTAILKHHVPFIKVKAIDANQHIAPYLLNLIRETTNYPIDLIVSHMSQISLPDAKYLLSQKYLNCQRLAKQTCQKVAVHLHVFYVDLLDEFLTAFEDWNFHYDLFITTDSDIKRKEIKEILQRKGKTADIRVTGNRGRDIYPMLLLKDKLSQYDYIGHFHTKKSKEADFWAGESWRKELIDMLVKPADSILSAFETDDIGIIIADIPSFFRFNKIVNAWNEHLIAQEMMSLWRKMDVKKQIDFQAMDTFVMSYGTFVWFKYDALKSLFDLELTQNDIPSEPLPQNSILHAIERLLVYIAWGNSYDFRIVKNPYELTPFIDNKLLNLREDEGAHTYVNFNQMGGIKGALKYIIVGPAKAMKYIFLRLMEKLKLEHHHHHH | soluble
17 | MNRLPNIAKPPQKSNQRKEKAPPEVPALIADKDRGTYYEKGRFLGKGGFAHCYELTNRATREVVAGKVVPKSMLVKQYQRDKMTQEVQIHRELGHINIVKLFNFFEDNLNVYITLELCARRSLMELHKRRKAVTEPEARYFTHQIVDGVLYLHDLNIIHRDMKLGNLFLNDDLVVKIGDFGLATTVNGDERKKTLCGTPNYIAPEVLNKAGHSFEVDIWAVGCILYILLFGQPPFESKSLEETYSRIRHNNYTIPSIATQPAASLIRKMLDPEPTRRPTAKQVQRDGFFKSGFMPTRLPVSCLTMVPKFGGHETSMMEENVAPRGVDARSQRPLNGRAGLSALPQHIVSNNADRERAQQQAAEATFREPEDAYLSQLFHQVAVLLEQRIPGLEEEEAALDGYQSPECLPVFWISKWVDYSDKYGIGYQLCDNSVGVLFNDNSRIMLDQAGNELTYIEKSNKEHYFSMHSGEMPGLLNKKVTLLKYFRSYMNDHLVKAGEGSEQRAGDDLARLPTLRVWFRTKSAIVLHLSNGTVQINFFNDHVKMMMCPLMQAVTFIDQNKRMLTYKLNNLQRNGCPEKFLHRLKYAKTMIERLMSDANVVSQNPARQPDMPRSMAAARSASAGSRGPNQAASHLPQSASGSNIHPRR | not soluble
